Measured values as given in PMC5686756, “IKKγ-Mimetic Peptides Block the Resistance to Apoptosis Associated with Kaposi's Sarcoma-Associated Herpesvirus Infection” (Journal of Virology, 2017).

Columns and labels:
GB1–ks-vFLIP = biological target: T1, GB1–ks-vFLIP (Human herpesvirus 8 type P, UniProt F5HEZ4); experiment: biochemical; format: binding, Kaposi's sarcoma-associated herpesvirus
T1 construct: ks-vFLIP (residues 1 to 188) was PCR cloned into the EcoRI and XhoI sites of GB1-pBR22b; 6His (C); made in house; host or cells: E. coli BL21(DE3)
T1 sequence (F5HEZ4 whole entry, the tested form may be a part): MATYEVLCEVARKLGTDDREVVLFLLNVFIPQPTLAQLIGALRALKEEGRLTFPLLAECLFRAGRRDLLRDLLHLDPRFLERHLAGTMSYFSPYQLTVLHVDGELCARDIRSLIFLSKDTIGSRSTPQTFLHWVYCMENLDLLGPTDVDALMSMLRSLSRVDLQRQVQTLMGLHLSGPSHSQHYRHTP
Experimental: We next sought to assess the affinity of spIKKγ for vFLIP using isothermal calorimetry (ITC).
Isothermal calorimetry (ITC) experiments were performed using a Microcal VP-ITC micocalorimeter (MicroCal). For all binding reactions, syringe concentrations varied between ∼85 and 100 μM for IKKγ(150–272) and cell concentrations between ∼8 and 10 μM for GB1-vFLIP. Titrations consisted of an initial 2-μl injection, followed by 20 10-μl injections with stirring at 300 rpm. In competition assays, GB1–ks-vFLIP was first incubated with 20 μM spIKKγ and DMSO to 4% prior to loading into the cell and titration with IKKγ(150–272). All ITC binding experiments were performed in deionized water at 25°C owing to the buffer constraints of spIKKγ, GB1–ks-vFLIP, and IKKγ(150–272), where GB1–ks-vFLIP and IKKγ(150–272) were buffer matched by overnight dialysis, followed by the addition of 4% DMSO to each. […] Following collection, all data were analyzed using ORIGIN 70 software and fitted to a one-site binding model with each experiment performed at least in triplicate.

IKKγ = experiment: Thermofluor assay, thermal denaturation of IKKγ alone; format: physicochemical; conditions: various concentrations, SYPRO orange
Description: FIG 2 vFLIP-IKKγ interaction and peptide thermofluor analysis. (A) (Left) Cartoon depiction of the ks-vFLIP–IKKγ heterotetramic complex (PDB code 3CL3). The IKKγ and ks-vFLIP monomers are shown in gray and wheat, respectively. (Right) The ks-vFLIP-IKKγ dimer interface highlighting cleft 1 (white) and cleft 2 (cyan). Residues essential for the formation of the cleft 1 interactions (H235, F238, D242, and K246) are colored magenta, and those that interact with cleft 2 (Q236 and E240) are colored blue. (B) IKKγ ks-vFLIP minimal interacting motif (residues 230 to 248) together with those forming the 30- and 21-mer peptides (pink and violet, respectively) used in the thermofluor studies. (C) Thermal denaturation profiles for ks-vFLIP (left) and IKKγ (right) at various concentrations. […] (D) Thermal denaturation of ks-vFLIP in the presence of various concentrations of IKKγ (left) and the 21-mer (pink) and 30-mer (violet) (right) peptides.
Each experiment was repeated at least 3 times. All peptides were purchased from Eurogentec.

ks-vFLIP = conditions: IKKγ(150–272) at 30 μM; 30 μM ks-vFLIP unless otherwise stated, SYPRO orange; repeated at least 3 times
Experimental: To achieve this, an unmodified 30-mer peptide (residues 224 to 253) was designed to encompass the interacting motif and neighboring residues along with a 21-mer (residues 226 to 248), only marginally longer than the motif itself (residues 230 to 248 [Fig. 2B]). These were commercially synthesized and their ability to associate with ks-vFLIP was assessed using a thermofluor assay (Fig. 2C and D).
Thermofluor studies were conducted using the MyIQ reverse transcription-PCR (RT-PCR) system (Bio-Rad) in a 96-well plate format. Trials were performed in which 30 μM ks-vFLIP (unless otherwise stated) was combined with either IKKγ or mimetic peptides (at the specified concentrations) prior to the addition of SYPRO orange diluted in a 1:1,000 (vol/vol) ratio and thermal denaturation. The data were subsequently processed using the Bio-Rad iQ5 software. Each experiment was repeated at least 3 times.

B1: IKKγ(150–272): IKKγ fragment encompassing residues 150 to 272 (protein)
chain: LGELQESQSRLEAATKECQALEGRARAASEQARQLESEREALQQQHSVQVDQLRMQGQSVEAALRMERQAASEEKRKLAQLQVAYHQLFQEYDNHIKSSVVGSERKRGMQLEDLKQQLQQAEE
With B1 the “apparent dissociation constant (Kd) of the vFLIP-IKKγ interaction in the presence of peptide” value (GB1–ks-vFLIP; GB1–ks-vFLIP preincubated with 20 μM spIKKγ, 4% DMSO, deionized water, 25°C, at least triplicate) was 30 µM, the “binding affinity for ks-vFLIP, spIKKγ compared with IKKγ(150–272)” value (GB1–ks-vFLIP; ITC) was “nearly equivalent binding affinities” and the “thermal denaturation response of IKKγ” value (IKKγ) was “lack of a significant response”. For the same molecule, the “shift in melting temperature of ks-vFLIP” value (ks-vFLIP) was ~8 °C.
